Measurements as given in patent publication US20260184782A1 (TWIST BIOSCIENCE, published 2026).

T1: human TIGIT-Fc (human, UniProt Q495A1 22-141, limits assumed)
T1 construct: not shown: Fc; not described
T1 sequence (looked up): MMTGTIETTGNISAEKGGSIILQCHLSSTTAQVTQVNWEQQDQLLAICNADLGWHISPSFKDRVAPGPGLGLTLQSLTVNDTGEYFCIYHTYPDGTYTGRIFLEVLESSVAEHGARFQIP

T2: TIGIT (UniProt Q495A1 22-141, limits assumed)
T2 construct: also called T cell immunoreceptor with Ig and ITIM domains; hTIGIT
T2 sequence (looked up): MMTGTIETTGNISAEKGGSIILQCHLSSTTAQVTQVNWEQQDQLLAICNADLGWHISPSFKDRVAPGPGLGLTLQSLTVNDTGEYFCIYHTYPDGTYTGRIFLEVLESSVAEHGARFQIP


Key:
human TIGIT-Fc [1] = target: T1, human TIGIT-Fc; experiment: CD155 competition ELISA, titration
Experimental: (§1) TIGIT/CD155 inhibition of VHH-Fcs were assessed using an ELISA assay (Table 10B). Briefly, human TIGIT-Fc was coated on a plate & then incubated with VHH-Fcs and human CD155-biotin. Bound CD155-biotin was detected using a streptavidin-HRP conjugate visualized with TMB. Strong inhibitors from the single point screen were titrated to determine EC50 (Table 10C).

human TIGIT-Fc [2] = target: T1, human TIGIT-Fc; experiment: CD155 competition ELISA, single point; note: test concentration or dose not given here
Experimental: as §1

TIGIT = target: T2, TIGIT; experiment: SPR, VHH-V5-His

Row | EC50 (human TIGIT-Fc [1]) | OD (450 nm) (human TIGIT-Fc [2]) | Kd (TIGIT) | RU (TIGIT) | koff (TIGIT) | kon (TIGIT) | Binder
1 | 1.53 nM | 0.0807 OD | – | – | – | – | TIGIT-SC57 (Fc fusion, VHH-Fc) VHH: EVQLVESGGGLVQPGGSLRLSCAASGNTFSGGFMGWFRQAPGKEREWVASVLRGGYTWYADSVKGRFTISADNSKNTAYLQMNSLKPEDTAVYYCTTYRGWGQGTLVTVSS
2 | 4.09 nM | 0.0846 OD | – | – | – | – | TIGIT-SC65 (Fc fusion, VHH-Fc) VHH: EVQLVESGGGLVQPGGSLRLSCAASGFTFGNYDMGWFRQAPGKEREFVAAITGSGRSTYYADSVKGRFTISADNSKNTAYLQMNSLKPEDTAVYYCARGRIAASGTKVYWYFDLWGQGTLVTVSS
3 | 0.181 nM | 0.143 OD | – | – | – | – | TIGIT-SC38 (Fc fusion, VHH-Fc) VHH: EVQLVESGGGLVQPGGSLRLSCAASGFTFSEYPMGWFRQAPGKEREFVAVVNWNGDSTYYADSVKGRFTISADNSKNTAYLQMNSLKPEDTAVYYCARGSDWYRYWGQGTLVTVSS
4 | 1.78 nM | 0.125 OD | – | – | – | – | TIGIT-SC31 (Fc fusion, VHH-Fc) VHH: EVQLVESGGGLVQPGGSLRLSCAASGRAFESYAMGWFRQAPGKERELVATIGWSGTDYADSVKGRFTISADNSKNTAYLQMNSLKPEDTAVYYCAKGYTSGLSDWGQGTLVTVSS
5 | 1.37 nM | 0.111 OD | – | – | – | – | TIGIT-SC46 (Fc fusion, VHH-Fc) VHH: EVQLVESGGGLVQPGGSLRLSCAASGRTFSNYVMGWFRQAPGKERELVASISSFGSTYYADSVKGRFTISADNSKNTAYLQMNSLKPEDTAVYYCARSGGFLSDWGQGTLVTVSS
6 | 1.23 nM | 0.149 OD | – | – | – | – | TIGIT-SC67 (Fc fusion, VHH-Fc) VHH: EVQLVESGGGLVQPGGSLRLSCAASGFTFDRSWMGWFRQAPGKEREWVSTIYSNGTPAYADSVKGRFTISADNSKNTAYLQMNSLKPEDTAVYYCARRGLPSYSYGMDVWGQGTLVTVSS
7 | – | – | 382 nM | 301 RU | 0.01 s⁻¹ | 30000 M⁻¹ s⁻¹ | TIGIT-31-56 (VHH-V5-His) (VHH, not shown: V5-His tag) VHH: EVQLVESGGGLVQPGGSLRLSCAASGRIFRRNSMGWFRQAPGKEREFVAVITRSGGGEVTTYADSVKGRFTINADNSKNTAYLQMNSLKPEDTAVYYCAMSSVTRGSSDWGQGTLVTVST
8 | 9.58 nM | 0.197 OD | – | – | – | – | TIGIT-SC64 (Fc fusion, VHH-Fc) VHH: EVQLVESGGGLVQPGGSLRLSCAASGFAFSNFGMGWFRQAPGKERELVSAIGWSGASTYYADSVKGRFTISADNSKNTAYLQMNSLKPEDTAVYYCARRGRTIPFDYWGQGTLVTVSS
9 | 2.08 nM | 0.144 OD | – | – | – | – | TIGIT-SC36 (Fc fusion, VHH-Fc) VHH: EVQLVESGGGLVQPGGSLRLSCAASGNTFNFNVMGWFRQAPGKEREAVASIWRSGGNTYYADSVKGRFTISADNSKNTAYLQMNSLKPEDTAVYYCARDLEWRPYYMDVWGQGTLVTVSS
10 | 6.52 nM | 0.607 OD | – | – | – | – | TIGIT-SC68 (Fc fusion, VHH-Fc) VHH: EVQLVESGGGLVQPGGSLRLSCAASGHTFRGYAMGWFRQAPGKEREAVAAISWSGDNTYYADSVKGRFTISADNSKNTAYLQMNSLKPEDTAVYYCGDYEGHWGQGTLVTVSS
11 | 4.08 nM | 0.25 OD | – | – | – | – | TIGIT-SC82 (Fc fusion, VHH-Fc) VHH: EVQLVESGGGLVQPGGSLRLSCAASGSMSSNYAMGWFRQAPGKEREFVAAIDWSGGNTYYADSVKGRFTISADNSKNTAYLQMNSLKPEDTAVYYCAKWFYYGSGLYTLDVWGQGTLVTVSS

Continued, binder first:

Row | Binder | EC50 (human TIGIT-Fc [1]) | OD (450 nm) (human TIGIT-Fc [2]) | Kd (TIGIT) | RU (TIGIT) | koff (TIGIT) | kon (TIGIT)
12 | TIGIT-31-06 (VHH-V5-His) (VHH, also called TIGIT-31-6; 31-6; not shown: V5-His tag) VHH: EVQLVESGGGLVQPGGSLRLSCAASGFTFSTSWMGWFRQAPGKERELVASITSGGSTYYADSVKGRFTISADNSKNTAYLQMNSLKPEDTAVYYCAADVWYGSTWRNWGQGTLVTVSS | – | – | 145 nM | 107 RU | 0.003 s⁻¹ | 20000 M⁻¹ s⁻¹
13 | TIGIT-31-32 (VHH-V5-His) (VHH, not shown: V5-His tag) VHH: EVQLVESGGGLVQPGGSLRLSCAASGFTFSTSWMGWFRQAPGKERELVAAMTSGGGTNYADSVKGRFTISADNSKNTAYLQMNSLKPEDTAVYYCAADVWYGSTWRNWGQGTLVTVSS | – | – | 102 nM | 145 RU | 0.006 s⁻¹ | 60000 M⁻¹ s⁻¹
14 | TIGIT-31-26 (VHH-V5-His) (VHH, not shown: V5-His tag) VHH: EVQLVESGGGLVQPGGSLRLSCAASGFTFDRSWMGWFRQAPGKERELVAAITSGGSTYYADSVKGRFTISADNSKNTAYLQMNSLKPEDTAVYYCAADVWYGSTWRNWGQGTLVTVSS | – | – | 158 nM | 59 RU | 0.003 s⁻¹ | 20000 M⁻¹ s⁻¹
15 | TIGIT-31-35 (VHH-V5-His) (VHH, not shown: V5-His tag) VHH: EVQLVESGGGLVQPGGSLRLSCAASGFTFSTSWMGWFRQAPGKERELVASITSGGTTNYADSVKGRFTISADNSKNTAYLQMNSLKPEDTAVYYCAADVWYGSTWRNWGQGTLVTVSS | – | – | 346 nM | 78 RU | 0.01 s⁻¹ | 30000 M⁻¹ s⁻¹
16 | TIGIT-31-20 (VHH-V5-His) (VHH, not shown: V5-His tag) VHH: EVQLVESGGGLVQPGGSLRLSCAASGFTFSGNWMGWFRQAPGKEREFVAGILSDGRELYADSVKGRFTISADNSKNTAYLQMNSLKPEDTAVYYCAADVWYGSTWRNWGQGTLVTVSS | – | – | 281 nM | 45 RU | 0.004 s⁻¹ | 10000 M⁻¹ s⁻¹
17 | TIGIT-31-47 (VHH-V5-His) (VHH, not shown: V5-His tag) VHH: EVQLVESGGGLVQPGGSLRLSCAASGFTFSGNWMGWFRQAPGKEREWVVGISSGGTPHYADSVKGRFTISADNSKNTAYLQMNSLKPEDTAVYYCAADVWYGSTWRNWGQGTLVTVSS | – | – | 186 nM | 119 RU | 0.004 s⁻¹ | 20000 M⁻¹ s⁻¹
18 | TIGIT-31-08 (VHH-V5-His) (VHH, also called TIGIT-31-8; 31-8; not shown: V5-His tag) VHH: EVQLVESGGGLVQPGGSLRLSCAASGFTFSTSWMGWFRQAPGKERELVAARNSGGNTNYADSVKGRFTISADNSKNTAYLQMNSLKPEDTAVYYCAADVWYGSTWRNWGQGTLVTVSS | – | – | 210 nM | 178 RU | 0.009 s⁻¹ | 40000 M⁻¹ s⁻¹
19 | TIGIT-31-01 (VHH-V5-His) (VHH, also called TIGIT-31-1; 31-1; not shown: V5-His tag) VHH: EVQLVESGGGLVQPGGSLRLSCAASGFTFDRSWMGWFRQAPGKEREVVASITSGGSTYYADSVKGRFTISADNSKNTAYLQMNSLKPEDTAVYYCAADVWYGSTWRNWGQGTLVTVSS | – | – | 169 nM | 122 RU | 0.004 s⁻¹ | 20000 M⁻¹ s⁻¹
20 | TIGIT-31-34 (VHH-V5-His) (VHH, not shown: V5-His tag) VHH: EVQLVESGGGLVQPGGSLRLSCAASGRSRYGMGWFRQAPGKEREFVSAISWSGISTYYADSVKGRFTISADNSKNTAYLQMNSLKPEDTAVYYCAATQWGSSGWKQARWYDWGQGTLVTVSS | – | – | 473000 nM | 25300 RU | 0.2 s⁻¹ | 400 M⁻¹ s⁻¹
21 | TIGIT-SC51 (Fc fusion, VHH-Fc) VHH: EVQLVESGGGLVQPGGSLRLSCAASGRTEANYAMGWFRQAPGKEREFVAAISWDGGATAYADSVKGRFTISADNSKNTAYLQMNSLKPEDTAVYYCGDYEGHWGQGTLVTVSS | 3.47 nM | 0.129 OD | – | – | – | –
